Laboratory results taken from the supplement of paper PMC9876800.

System: peptide library, one residue held at a place counted from the S/T acceptor
Assay: relative phosphorylation of the sub-library (ratio to the mean residue at this position); higher = residue favoured
How it was run: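 Spots on streptavidin membranes were phosphorimaged and quantified by densitometry to measure phosphorylation of biotinylated degenerate peptide sub-libraries by purified recombinant kinases, human or orthologue constructs. The reactions ran in 384-well plates for 90 min under kinase-specific conditions, with peptides at 50 μM and 50 μM ATP spiked with γ-32P-ATP. Relative sub-library phosphorylation is the ratio to the mean residue at that position.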

Sequence of EIF2AK3, construct: aa536-1116, human (Q9NZJ5 536-1116, looked up): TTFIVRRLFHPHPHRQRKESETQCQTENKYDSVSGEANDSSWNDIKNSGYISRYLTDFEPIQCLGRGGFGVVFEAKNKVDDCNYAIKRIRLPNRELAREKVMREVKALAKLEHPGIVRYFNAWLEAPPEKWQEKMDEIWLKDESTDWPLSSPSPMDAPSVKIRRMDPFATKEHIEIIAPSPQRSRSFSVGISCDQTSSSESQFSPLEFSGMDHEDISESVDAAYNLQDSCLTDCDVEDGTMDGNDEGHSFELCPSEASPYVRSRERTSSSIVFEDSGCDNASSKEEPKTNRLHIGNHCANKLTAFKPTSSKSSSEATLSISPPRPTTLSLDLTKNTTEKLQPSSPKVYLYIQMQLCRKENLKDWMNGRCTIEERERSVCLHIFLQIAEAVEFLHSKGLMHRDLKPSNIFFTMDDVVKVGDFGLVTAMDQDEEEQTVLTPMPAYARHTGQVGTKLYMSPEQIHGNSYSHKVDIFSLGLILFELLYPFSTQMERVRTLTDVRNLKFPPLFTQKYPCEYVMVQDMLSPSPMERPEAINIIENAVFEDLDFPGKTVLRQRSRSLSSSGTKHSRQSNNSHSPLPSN
Sequence of PLK2, construct: aa57-360, human (Q9NYY3 57-360, looked up): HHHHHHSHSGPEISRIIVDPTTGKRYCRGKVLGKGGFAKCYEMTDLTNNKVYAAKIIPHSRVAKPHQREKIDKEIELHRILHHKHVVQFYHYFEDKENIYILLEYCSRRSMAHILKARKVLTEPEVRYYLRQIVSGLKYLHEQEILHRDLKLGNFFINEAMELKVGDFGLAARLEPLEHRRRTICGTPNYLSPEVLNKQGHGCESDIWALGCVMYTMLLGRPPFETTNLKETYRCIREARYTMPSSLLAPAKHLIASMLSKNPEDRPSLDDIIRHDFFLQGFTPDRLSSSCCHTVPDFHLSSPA
Sequence of EEF2K, construct: Full length, human (O00418 whole entry, looked up): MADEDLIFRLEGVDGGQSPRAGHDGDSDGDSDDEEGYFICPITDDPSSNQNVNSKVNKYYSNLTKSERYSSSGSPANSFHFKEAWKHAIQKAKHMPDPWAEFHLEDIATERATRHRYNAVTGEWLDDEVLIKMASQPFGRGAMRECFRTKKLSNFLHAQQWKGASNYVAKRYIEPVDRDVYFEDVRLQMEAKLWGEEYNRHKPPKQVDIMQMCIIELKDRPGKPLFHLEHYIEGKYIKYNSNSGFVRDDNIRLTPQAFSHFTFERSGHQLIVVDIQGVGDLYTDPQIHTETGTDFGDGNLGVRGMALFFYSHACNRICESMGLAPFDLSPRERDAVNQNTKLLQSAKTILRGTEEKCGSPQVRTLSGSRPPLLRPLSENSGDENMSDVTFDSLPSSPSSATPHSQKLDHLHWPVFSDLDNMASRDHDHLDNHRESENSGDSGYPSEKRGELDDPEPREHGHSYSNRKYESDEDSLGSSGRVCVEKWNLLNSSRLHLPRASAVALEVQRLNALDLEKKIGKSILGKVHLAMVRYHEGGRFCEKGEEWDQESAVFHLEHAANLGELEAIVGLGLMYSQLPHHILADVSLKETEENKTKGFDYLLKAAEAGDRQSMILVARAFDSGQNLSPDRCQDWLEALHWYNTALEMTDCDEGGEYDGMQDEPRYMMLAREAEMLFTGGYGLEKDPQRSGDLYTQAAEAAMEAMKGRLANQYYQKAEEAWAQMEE

PLK2, construct: aa57-360, human (from UniProt Q9NYY3)
relative phosphorylation
Conditions	at +1	at +2	at +3	at +4	at -1	at -2	at -3	at -4	at -5
A fixed	0.569	0.927	0.69	0.793	0.879	0.734	0.559	0.825	0.975
D fixed	0.52	2.18	2.27	1.98	2.51	3.13	1.77	1.74	1.46
E fixed	0.87	2.23	2.59	2.2	1.61	2.35	7.3	2.19	1.53
F fixed	3.75	0.919	0.861	0.916	0.658	0.508	0.751	1.06	1.37
G fixed	0.529	0.54	0.81	0.842	0.587	0.655	0.583	0.9	1.25
H fixed	0.628	0.999	0.914	0.988	1.16	0.8	0.625	0.888	1.11
I fixed	1.3	0.971	0.835	0.974	0.697	0.558	0.318	0.888	0.806
K fixed	0.452	0.227	0.358	0.442	0.634	0.3	0.292	0.638	0.722
L fixed	1.02	0.707	0.874	0.982	0.701	1.23	0.608	1.11	0.844
M fixed	1.78	1.01	0.85	0.869	0.874	1.24	0.763	0.866	0.842
N fixed	0.567	0.99	1.05	0.866	1.24	1.88	0.687	1	0.955
P fixed	0.159	0.532	0.609	1.07	1.46	0.736	0.482	0.928	0.955
Q fixed	1.2	0.752	0.987	0.877	0.833	0.883	0.717	0.846	0.692
R fixed	0.691	0.438	0.396	0.441	0.79	0.465	0.333	0.609	0.694
V fixed	0.994	0.841	0.765	0.554	0.899	0.391	0.269	0.775	0.757
W fixed	0.683	1.31	1.08	1.24	0.469	0.458	0.48	0.907	0.977
Y fixed	1.28	1.44	1.05	0.968	0.997	0.676	0.459	0.845	1.06
pThr fixed	1.33	2.29	2.39	3.26	1.07	1.08	1.05	1.68	1.04
pTyr fixed	1.4	11	2.89	3.61	4.55	0.912	1.2	1.6	1.63

EIF2AK3, construct: aa536-1116, human (from UniProt Q9NZJ5)
relative phosphorylation
Conditions	at +1	at +2	at +3	at +4	at -1	at -2	at -3	at -4	at -5
A fixed	0.888	1.08	0.836	0.863	0.745	0.615	1.02	1.02	1.07
D fixed	0.348	0.419	0.491	0.684	0.71	3.5	1.61	1.18	1
E fixed	0.676	0.277	0.555	0.678	0.62	3	1.23	0.94	0.712
F fixed	1.08	0.921	1.09	0.92	1.21	1.22	1.04	1.05	1.32
G fixed	1.02	1.14	1.89	1.14	0.458	0.748	0.825	1.05	0.984
H fixed	0.898	1.28	1.31	1.12	1.21	0.712	0.911	1.08	1.17
I fixed	1.05	0.748	0.703	0.838	1.2	0.527	0.819	0.774	0.837
K fixed	1.12	1.06	1.09	1.28	1.19	0.472	0.798	0.942	0.996
L fixed	0.907	0.609	0.8	0.822	1.11	0.877	1.06	0.79	1.01
M fixed	1.6	0.823	0.814	0.871	1.22	0.942	1.06	0.956	0.9
N fixed	0.86	1.12	0.821	0.95	0.879	0.698	0.856	0.788	0.788
P fixed	0.245	0.662	1.48	1.24	0.582	0.429	0.749	0.871	0.837
Q fixed	1.43	0.719	0.778	0.865	0.837	0.615	0.767	0.751	0.713
R fixed	2.11	2.2	1.43	1.53	1.34	0.576	0.934	1.1	1.06
V fixed	0.92	0.709	0.664	0.78	1.25	0.544	0.839	0.825	0.769
W fixed	0.809	1.44	1.25	1.3	1.07	0.892	1.42	1.66	1.49
Y fixed	1.04	1.79	0.999	1.12	1.36	0.629	1.06	1.22	1.34
pThr fixed	0.47	0.307	0.402	0.715	0.478	1.31	1.05	0.722	0.848
pTyr fixed	0.828	0.387	0.715	0.796	0.726	0.527	1.05	0.682	0.847

EEF2K, construct: Full length, human (from UniProt O00418)
relative phosphorylation
Conditions	at +1	at +2	at +3	at +4	at -1	at -2	at -3	at -4	at -5
A fixed	1.46	0.748	0.733	0.852	1.3	1.1	0.971	1.01	1.08
D fixed	0.421	0.233	0.609	0.742	1.24	1.24	1.14	0.912	0.748
E fixed	1.5	0.236	0.618	0.644	1.25	1.91	1.13	0.794	0.718
F fixed	0.935	1.16	0.583	0.718	0.881	0.935	0.971	1.61	1.17
G fixed	0.447	0.773	0.679	1.08	1.14	1.13	1.32	1.18	1.07
H fixed	0.864	1.31	0.766	1.28	1.08	0.929	0.971	0.878	0.873
I fixed	1.4	0.647	0.417	0.651	0.598	0.739	0.945	0.932	1.02
K fixed	0.992	2.31	3.25	2.03	0.978	0.631	0.975	1.11	1.24
L fixed	1.09	0.565	0.477	0.643	0.93	0.751	0.975	1.04	0.892
M fixed	1.13	0.909	0.504	0.799	1.05	0.848	0.978	1.17	1.1
N fixed	0.551	0.695	0.918	1.08	1.04	0.655	1.09	0.901	0.975
P fixed	0.253	0.361	0.337	0.96	0.96	1.57	1.08	0.889	1.03
Q fixed	1.33	0.965	0.88	1.07	0.983	1.06	0.893	0.809	0.847
R fixed	1.04	3.13	4.55	1.91	1.14	0.821	1.04	1.08	1.18
V fixed	1.72	0.776	0.537	0.665	0.567	0.833	0.848	0.876	0.993
W fixed	0.885	0.684	0.563	1.1	0.806	0.921	0.79	0.869	1.06
Y fixed	0.989	1.49	0.581	0.762	1.06	0.918	0.886	0.939	1.02
pThr fixed	0.777	0.601	0.648	1.05	0.619	0.91	1.27	0.982	1.29
pTyr fixed	1.85	0.381	0.882	0.738	1	2.03	1.3	0.754	1.47
